Entries after “also recorded” stand apart in the source; their conditions may differ.

The values below come from US10517925B2, “Composition comprising KA11 polypeptide or gene encoding the same for inhibiting angiogenesis, and use thereof” (SEOUL NATIONAL UNIVERSITY R & DB FOUNDATION, priority 2015, dated 2019).

Assay [1] concerns KAI1 expression in 10T1/2. The assay can be described thus: KAI1 expression of 10T1/2 treated with angiogenic cytokines (RT-qPCR, Western blotting, immunostaining). Type of assay: cell-based, mouse. As to conditions: for KAI1 expression: 10T1/2, 40 ng/ml cytokine, until 72 hours; for KAI1 expression after removal of the stimulant: 10T1/2 stimulated 24 hours, then fresh culture media. On the procedure: That is, the change in KAI1 expression according to time (24 hrs, 48 hrs or 72 hrs) after 10T1/2 was treated with 40 ng/ml of each cytokine (VEGF-A, bFGF or PDGF-bb) was identified through RT-qPCR, Western blotting and immunostaining, and thus the results are shown in FIGS. 31A and 31B and 32. Here, each group of 10T1/2 was treated with 40 ng/ml of each cytokine (VEGF-A, bFGF, and PDGF-bb) as an angiogenic factor and cultured in RPMI 1640 HEPES supplemented with 10% (v/v) fetal bovine serum (FBS) and 1% antibiotics-antimycotics for up to 72 hours without change in a culture medium.
After FGF or PDGF stimulation was given to 10T1/2, 24 hours later, the media was changed with fresh culture media (general culture media), and then RT-qPCR and Western blotting were conducted to confirm whether there was a change in the decreased expression of KAI1. […] From the result, it can be seen that the decrease in KAI1 expression was reversible.
(In general: Quantitative PCR measures a nucleic acid by following its amplification.)

Assay [2] concerns KAI1 expression in 10T1/2. The assay can be described thus: blocking of the cytokine-induced decrease in KAI1 expression of 10T1/2 by inhibitor pre-treatment. Type of assay: cell-based, mouse. As to conditions: 10T1/2, 50 μM methylation inhibitor, then cytokine (VEGF-A, bFGF, PDGF-bb). On the procedure:
Before 10T1/2 was treated with 40 ng/ml of a cytokine (VEGF-A, bFGF or PDGF-bb) selected in Example 8-1, a cytokine receptor inhibitor was treated beforehand. To this end, VEGF-A- and PDGF-bb-treated groups were treated with a tyrosine kinase inhibitor named SU11248, and a bFGF-treated group was pre-treated with a tyrosine kinase inhibitor named PD173074 for 2 hours, treated with 40 ng/ml of each cytokine (VEGF-A, bFGF, and PDGF-bb) as an angiogenic factor for 24 hours, and then harvested to confirm KAI1 expression through RT-qPCR and Western blotting, and the result is shown in FIGS. 29A and 29B.
To confirm signaling of the decrease in KAI1 expression in 10T1/2 by a cytokine, RT-qPCR and Western blotting were used to confirm whether the decrease in KAI1 expression in 10T1/2 by a cytokine was blocked by treating 10T1/2 with a signal molecule inhibitor (a Src, Pkc, TGF-β, MAPK, AKT, p53. or JAK inhibitor) before cytokine stimulation, and the result is shown in FIGS. 35 to 38.
10T1/2 was treated with 50 μM of a methylation inhibitor (5-azacytidine), and then treated with each cytokine (VEGF-A, bFGF, and PDGF-bb), which is an angiogenic factor, to confirm KAI1 expression, and the result is shown in FIG. 40.

For assay [3], the system named is prostate cancer cell line (PC-3). The assay can be described thus: PC-3 matrigel subcutaneous tumor mass formation in mice. It counts as in vivo, mouse. The note with it: PC-3 with matrigel subcutaneously in mice, compared to vehicle. The source says:
More specifically, a prostate cancer cell line (PC-3) was mixed with a matrigel and subcutaneously injected into mice, and then tumor mass formation was observed and compared per experimental group. […] In addition, it can be confirmed that tumor mass was smaller in a group injected with a supernatant of KAI1 O/E 10T1/2 than in a group injected with a supernatant of mock 10T1/2. After the tumor mass obtained in the above-mentioned experiment was fixed with PFA, the cross-section was formed into sections, and a degree of angiogenesis per experimental group was determined by IF. Antibodies used herein were BS-1 Lectin (EC marker, 488 fluorescence), α-SMA (Pericyte marker, 555 fluorescence), and DAPI (nucleus marker, 405 fluorescence).

Assay [4] concerns MS-1 / 10T1/2 hybrid spheroid. The assay can be described thus: EC-pericyte hybrid spheroid sprouting in collagen. As to conditions: culture media supplemented with KAI1 protein. It counts as cell-based, mouse. The source says: Here, a mouse endothelial cell line (MS-1) was used as ECs and 10T1/2 was used as pericytes. In addition, KAI1 was overexpressed using an adenovirus in pericytes. In the manufacture of the spheroid, a ratio of the number of each type of cell (EC:pericyte) was 2:1, and the total cell number was fixed at 3×10^3. As culture media used to grow the spheroids, 10% FBS and 1% antibiotics-antimycotics-containing Dulbecco's modified eagle medium (DMEM) was used. In addition, effective EC sprouting was induced by a treatment of 100 ng/ml of recombinant human VEGF.
Afterwards, to verify an anticancer effect of a KAI1 protein treatment, B16 and an EC-pericyte hybrid spheroid were manufactured and embedded in collagen, and then a degree of vessel formation was observed by time. Here, a mouse endothelial cell line (MS-1) was used as ECs, and 10T1/2 was used as pericytes. In the manufacture of the spheroid, a ratio of the number of each type of cell (EC:pericyte) was 2:1, and the total cell number was fixed at 3×10^3. As culture media used to grow the spheroids, Dulbecco's modified eagle medium (DMEM) supplemented with 10% FBS and 1% antibiotics-antimycotics and a KAI1 protein was used. As a result, as shown in FIGS. 50A and 50B and 51, it can be confirmed that the sprouting of the KAI1 protein was inhibited in the spheroids. Therefore, an anticancer effect of the KAI1 protein was able to be expected.

For another assay, the system named is mouse cornea. The assay can be described thus: mouse cornea micropocket assay. It counts as in vivo. The note with it: pellet containing both cytokine and protein, 10 days, similar to vehicle. On the procedure: Based on the above-described in vitro experiment, a mouse cornea micropocket assay was performed to confirm whether angiogenesis was actually regulated by in vivo regulation of the KAI1 expression of pericytes. After a pocket formed by mixing cytokine, sucralfate and poly-hema (from which the cytokine was slowly secreted little by little) was manufactured and added to the mouse cornea, a degree of angiogenesis per experimental group was examined for 10 days. As a result, as shown in FIGS. 47A and 47B, it can be confirmed that, compared to a vehicle, angiogenesis in the mouse cornea injected with a pellet containing only a cytokine was added was much increased.

The subject of another assay is retinal angiogenesis. The assay can be described thus: retinal disease model mouse, injection into the orbit. Type of assay: in vivo. The note with it: injected into the orbit of model mouse, immunofluorescence, compared with control (not treated). As to the method:
Retinal diseases such as diabetic retinopathy and central serous (chorio)retinopathy are diseases of the loss of eyesight as vessel permeability is increased by a VEGF, body fluids gather around the retina (macular edema), and pathological angiogenesis occur.
A KAI1 protein was injected into the orbit of a model mouse with such a disease, and a degree of angiogenesis inhibition was compared with a control (not treated).

In the case of “bFGF: typical angiogenic factor (cytokine)”, in assay [1], the KAI1 expression result was “continuously decreased” and the “KAI1 expression after removal of the stimulant” value is on record as “recovered again”.
Regarding `Nc1ncn([C@@H]2O[C@H](CO)[C@@H](O)[C@H]2O)c(=O)n1` [5-azacytidine], in assay [2], the KAI1 gene expression entry is “not decreased”.

B1: PDGF-bb: typical angiogenic factor (cytokine) (protein, UniProt P01127 82-190, looked up)
Platelet-derived growth …: SLGSLTIAEPAMIAECKTRTEVFEISRRLIDRTNANFLVWPPCVEVQRCSGCCNNRNVQCRPTQVQLRPVQVRKIEIVRKKPIFKKATVTLEDHLACKCETVAAARPVT
modifications: homodimer
Regarding B1, in assay [1], the KAI1 expression entry is on record as “continuously decreased” and the “KAI1 expression after removal of the stimulant” value was “recovered again”.

B2: KAI1 protein: KAI1(CD82) polypeptide, human-derived amino acid sequence of SEQ ID NO: 1 or mouse-derived SEQ ID NO: 2 (protein)
chain: MGAGCVKVTKYFLFLFNLLFFILGAVILGFGVWILADKNSFISVLQTSSSSLQVGAYVFIGVGAITIVMGFLGCIGAVNEVRCLLGLYFVFLLLILIAQVTVGVLFYFNADKLKKEMGNTVMDIIRNYTANATSSREEAWDYVQAQVKCCGWVSHYNWTENEELMGFTKTTYPCSCEKIKEEDNQLIVKKGFCEADNSTVSENNPEDWPVNTEGCMEKAQAWLQENFGILLGVCAGVAVIELLGLFLSICLCRYIHSEDYSKVPKY
Take B2: the tumor mass result in assay [3] was “smaller”. The “sprouting of B16 and EC-pericyte hybrid spheroids” value in assay [4] is recorded as “inhibited”. The “angiogenesis in the mouse cornea” value in the assay with mouse cornea is listed as “no angiogenesis”. For the same molecule, in the assay with retinal angiogenesis, the “angiogenesis in the presence of VEGF” value is “angiogenesis was inhibited; also recorded: inhibition of angiogenesis”.
